B1: eSrtA(2A-9): P94R, S102C, A104H, E105D, K138P, K152I, N160K, K162H, T164N, D165A, K173E, I182V, K190E, T196S (protein)
chain: QAKPQIPKDKSKVAGYIEIPDADIKEPVYPGPATREQLNRGVCFHDENESLDDQNISIAGHTFIDRPNYQFTNLKAAKPGSMVYFKVGNETRIYKMTSIRKVHPNAVEVLDEQEGKDKQLTLVTCDDYNEETGVWESRKIFVATEVK
B2: eSrtA (protein)
chain: QAKPQIPKDKSKVAGYIEIPDADIKEPVYPGPATREQLNRGVSFAEENESLDDQNISIAGHTFIDRPNYQFTNLKAAKKGSMVYFKVGNETRKYKMTSIRNVKPTAVEVLDEQKGKDKQLTLITCDDYNEETGVWETRKIFVATEVK

Tested on: SUMO-TEV site-FGF1-LPESG-His6
Experiment: FGF dual labeling / circularization of GGG-FGF-LPESG
Type: biochemical
Conditions: 0.2 eq enzyme, 10 or 100 μM Btn-LAETG, 4 hours
Experimental: SUMO-TEV site-FGF1-LPESG-His6 (SEQ ID NO: 27), 0.5 eq TEV protease, and either 0.2 eq eSrtA or eSrtA(2A-9) were incubated in the presence of 10 or 100 μM Btn-LAETG (SEQ ID NO: 5) for 4 hours. The protein contains a GGG near its N-terminus masked by a TEV protease cleavage site, and a LPESG (SEQ ID NO: 3) near its C-terminus to serve as a substrate for downstream conjugation. In situ digestion of the TEV cleavage site exposes an N-terminal GGG, which in theory can serve as the substrate for subsequent conjugation with an LAETG-containing peptide (SEQ ID NO: 5). […] His6: SEQ ID NO: 6.
SUMO-TEV-FGF-LPESG-His6 (SEQ ID NO: 27) conjugates were treated with 0.2 eq eSrtA(4S-9), 1 mM GGG-PEG and 10 mM CaCl2 in TBS and incubated at room temperature at 500 μL final volumes. These samples were then quenched by the addition of 100 μM H2N-LPESGG (SEQ ID NO: 38) peptide and 100 μL of pre-equilibrated Ni-NTA resin slurry in TBS, then incubated on ice for 15 minutes. This mixture was then passed through a 0.2 μm spin filter, diluted 1:10 into PBS+10 μM H2N-LPESGG (SEQ ID NO: 38) peptide, and concentrated against a 10 kDa MWCO spin concentrator to a final volume of 400 μL. This process was repeated five times to afford the crude SUMO-TEV-FGF-LPESGGG-PEG (SEQ ID NO: 39) conjugates. […] Protein concentrations were determined by BCA assay. […]

Row | Molecule | circularization of GGG-FGF-LPESG
1 | B1 | does not generate detectable levels of circularized GGG-FGF protein
2 | B2 | resulting in circularization

Reference: patent US10202593B2, “Evolved sortases and uses thereof” (President and Fellows of Harvard College, priority 2013, dated 2019)
